Test results from patent US7193044B1, “Compounds and methods for regulating apoptosis, and methods of making and screening for compounds that regulate apoptosis” (Immunogen, Inc., priority 2000, dated 2007).
“Also recorded” adds a separate entry of the source.

Tests used:
[1] = molecular target: GST-Bcl-XL (Homo sapiens, UniProt Q07817); assay: GST-Bcl-XL binding (glutathione bead pull-down) of BAD; settings: whole cell lysate of COS-7 cells, glutathione bead precipitation, anti-HA blot
Protocol: In order to test whether the additional and novel phosphorylation site on BAD has functional significance, the effect on BAD binding to Bcl-XL was examined. Recombinant Bcl-XL tagged with the glutathione S-transferase (“GST”) moiety (“GST-Bcl-XL”) was incubated with WCL prepared from COS-7 cells expressing the double mutant HA-BAD S112A/S136A, and the HA-BAD S112A/S136A that bound to the GST-Bcl-XL was precipitated with GST beads. […] No HA-BAD S112A/S136A was precipitated with GST beads from the WCL that were not incubated with GST-Bcl-XL (FIG. 1, lane 4).
The ability of full-length BAD and mutant BAD S155A to bind Bcl-XL was also determined (FIG. 3(c)). Full-length BAD (“WT”) and mutant BAD S155A (“S155A”) were produced by in vitro translation and labeled with ^35S-methionine therein. […] Proteins bound to the beads (“Bound”) (lower panel) and samples of the reactions collected prior to incubation with the beads (“Total”) (upper panel) were analyzed by SDS-PAGE followed by autoradiography.
For Bcl-XL binding studies, GST-Bcl-XL (1 mg/ml final concentration) was added to cell lysates derived from BAD expressing cells, and incubated with rotation for two hours at 4° C. […] The beads were then washed with RIPA buffer, the proteins were separated by SDS-PAGE and associated BAD detected by probing the blot with anti-HA antibody.

[2] = test system: BAD phosphorylation in COS-7 cells; assay: BAD phosphorylation in COS-7 cells (western blot band-shift); format: cell-based; settings: anti-HA western blot, listed as HA-BAD S112A/S136A
Excerpt: Mouse FL5.12 cells were then transfected with the expression vector encoding the shorter murine BAD of SEQ ID NO:3 or one of the three BAD mutants. Total mRNA was isolated from the transfected FL5.12 cells, and reverse transcribed into cDNA. The cDNA was then subcloned into the expression vector pcDNA3 so that the amino acid sequence of the BAD or mutant BAD, encoded by the subcloned cDNA, was in-frame and operably linked to an N-terminal hemagglutinin (“HA”) epitope encoded by the expression vector. The expression vectors encoding the HA-tagged shorter murine BAD and mutant BAD were expressed in COS-7 cells. Whole cell lysates (“WCL”) were then prepared from the COS-7 cells expressing the polypeptides. The phosphorylation of the shorter murine BAD of SEQ ID NO:3 and mutant BAD were detected by a western blot of the WCL, probed with an anti-HA antibody (“anti-HA antibody”). […] Of note, each of the BAD mutants resolved as a doublet on a 16% SDS-PAGE, even though in the amino acid sequence of each of the BAD mutants one or both of the serines corresponding to Ser112 and Ser136 were mutated, i.e., substituted with alanine. […]

[3] = test system: HeLa cells; assay: Fluorescence-based beta-galactosidase assay of BAD-induced cell death in transfected HeLa cells; parameters: species or system human; settings: SFM vs SFM+EGF, 12 hours
Protocol: FIG. 12(B) is a graphic representation of the results of a β-galactosidase assay. HeLa cells were co-transfected with the β-galactosidase gene and either HA-BAD (“WT”), HA-BAD S155A (“S155A”), HA-BAD S112A/S136A (“S112A/S136A”) or HA-BAD S112A/S136A/S155A (“AAA”). Transfected cells were then cultured in serum-free medium (SFM) or SFM supplemented with EGF (SFM+EGF) for 12 hours. Cell lysates were prepared and BAD-induced cell death was measured by the loss of β-galactosidase activity in a fluorescence-based assay. Fluorescence was measured at 465 nm. Results shown are the average and standard deviation of triplicate transfections (this experiment was repeated two more times with similar results). Expression levels of HA-tagged BAD and BAD mutants in transfected cell lysates were detected by anti-HA western blot analysis: HA-BAD (“WT”), HA-BAD S155A (“A”), HA-BAD S112A/S136A (“AA”), and HA-BAD S112A/S136A/S155A (“AAA”).
FIG. 12(C) is a graphic representation of the results of a β-galactosidase assay. HeLa cells were co-transfected with the β-galactosidase gene and either an empty vector (“CTL”), wild-type BAD (“WT”), the BAD S155A mutant (“S155A”) or the BAD S155D mutant (“S155D”). Cell lysates were prepared and BAD-induced cell death was measured by the loss of β-galactosidase activity in a fluorescence-based assay. Fluorescence was measured at 465 nm. Results shown are the average and standard deviation of triplicate transfections (this experiment was repeated two more times with similar results).
HeLa cells were co-transfected with the β-galactosidase gene and either wild-type BAD, BAD S155A, BAD S112A/S136A or BAD S112A/S136A/S155A. […] Cell lysates were prepared and BAD-induced cell death was measured by the loss of β-galactosidase activity in a fluorescence-based assay. […]
To measure β-gal activity, HeLa cells were plated in 12-well plates at 5×10^4 cells/well one day prior to transfection. […] Beta-gal activity was measured in extracts using a fluorogenic substrate (MUG, BIO-RAD FluorAce™ β-gal Reporter Assay, #170–3150). […]

Chain of GST-Bcl-XL (Q07817 whole entry): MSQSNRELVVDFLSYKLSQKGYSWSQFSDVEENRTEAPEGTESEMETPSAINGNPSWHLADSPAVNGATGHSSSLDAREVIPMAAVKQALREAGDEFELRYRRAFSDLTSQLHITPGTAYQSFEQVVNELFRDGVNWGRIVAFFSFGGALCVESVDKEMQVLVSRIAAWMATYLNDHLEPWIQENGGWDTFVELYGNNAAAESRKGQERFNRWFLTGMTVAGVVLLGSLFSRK

B1: BAD S112A/S136A: mutant of shorter murine BAD, serines corresponding to Ser112 and Ser136 substituted with alanine (protein)
chain: MFQIPEFEPSEQEDASATDRGLGPSLTEDQPGPYLAPGLLGSNIHQQGRAATNSHHGGAGAMETRSRHSAYPAGTEEDEGMEEELSPFRGRSRAAPPNLWAAQRYGRELRRMSDEFEGSFKGLPRPKSAGTATQMRQSAGWTRIIQSWWDRNLGKGGSTPSQ
modifications: left off: small tags and cut ends
notes: mutant of shorter murine BAD, serines corresponding to Ser112 and Ser136 substituted with alanine
[1]
  binding to GST-Bcl-XL: only the lower molecular weight band of the doublet was detected
[2]
  phosphorylation of expressed BAD mutant (lambda phosphatase-sensitive higher molecular weight band): phosphatase treatment completely eliminated the higher molecular weight band of the doublet; also recorded: do not eliminate the phosphorylation of BAD
[3]
  effect of EGF stimulation on pro-apoptotic activity of the BAD mutant: also suppressed by EGF stimulation
